# Patent publication US10457718B2, “Compounds for the treatment of cancer” (Rheinisch-Westfaelische Technische Hochschule Aachen, priority 2015, dated 2019)
# B1: 213_vWA: isolated recombinant polypeptide comprising only the vWA domain of ITIH5, 213 amino acids (protein)
# chain: GYFVHYFAPKDLPPLPKNVVFVLDSSASMVGTKLRQTKDALFTILHDLRPQDRFSIIGFSNRIKVWKDHLISVTPDSIRDGKVYIHHMSPTGGTDINGALQRAIRLLNKYVAHSGIGDRSVSLIVFLTDGKPTVGETHTLKILNNTREAARGQVCIFTIGIGNDVDFRLLEKLSLENCGLTRRVHEEEDAGSQLIGFYDEIRTPLLSDIRIDY
# modifications: “vWA” domain of the inter-alpha-trypsin inhibitor heavy chain
# B2: 1-162_VIT: isolated recombinant polypeptide comprising only the VIT domain of ITIH5, amino acid 1 to 162 (protein)
# chain: MLLLLGLCLGLSLCVGSQEEAQSWGHSSEQDGLRVPRQVRLLQRLKTKPLMTEFSVKSTIISRYAFTTVSCRMLNRASEDQDIEFQMQIPAAAFITNFTMLIGDKVYQGEITEREKKSGDRVKEKRNKTTEENGEKGTEIFRASAVIPSKDKAAFFLSYEE
# modifications: VIT- domain of the inter-alpha-trypsin inhibitor heavy chain
# B3: 1-681_ITIH5: recombinant isolated polypeptide, amino acids 1-681 of the full-length ITIH5 protein (942 amino acids) (protein)
# chain: MLLLLGLCLGLSLCVGSQEEAQSWGHSSEQDGLRVPRQVRLLQRLKTKPLMTEFSVKSTIISRYAFTTVSCRMLNRASEDQDIEFQMQIPAAAFITNFTMLIGDKVYQGEITEREKKSGDRVKEKRNKTTEENGEKGTEIFRASAVIPSKDKAAFFLSYEELLQRRLGKYEHSISVRPQQLSGRLSVDVNILESAGIASLEVLPLHNSRQRGSGRGEDDSGPPPSTVINQNETFANIIFKPTVVQQARIAQNGILGDFIIRYDVNREQSIGDIQVLNGYFVHYFAPKDLPPLPKNVVFVLDSSASMVGTKLRQTKDALFTILHDLRPQDRFSIIGFSNRIKVWKDHLISVTPDSIRDGKVYIHHMSPTGGTDINGALQRAIRLLNKYVAHSGIGDRSVSLIVFLTDGKPTVGETHTLKILNNTREAARGQVCIFTIGIGNDVDFRLLEKLSLENCGLTRRVHEEEDAGSQLIGFYDEIRTPLLSDIRIDYPPSSVVQATKTLFPNYFNGSEIIIAGKLVDRKLDHLHVEVTASNSKKFIILKTDVPVRPQKAGKDVTGSPRPGGDGEGDPNHIERLWSYLTTKELLSSWLQSDDEPEKERLRQRAQALAVSYRFLTPFTSMKLRGPVPRMDGLEEAHGMSAAMGPEPVVQSVRGAGTQPGPLLKKPYQPRIKISKTSVDGD
# modifications: polypeptide 1-681_ ITIH5
# Assays:
# [1] = test system: MDA-MB231 breast cancer cells; test: short-term cell number WST assay / XTT proliferation assay of small peptides; format: cell-based, human; conditions: 300 ng/ml
# Excerpt: FIG. 6 presents diagrams showing the tumor suppressive impact of small peptides derived from ITIH5 on aggressive MDA-MB231 breast cancer cells. Growth inhibition mediated by chemically synthesized ITIH5-derived peptides using a short-term cell number WST assay.
# These small protein fragments can be further optimized (stabilization, modification) to obtain suitable candidates for novel anti-tumor drugs. Use of biological drugs in targeted cancer therapy is a strongly growing area in cancer care.
# [2] = test system: MDA-MB231 breast cancer cells; test: short-term cell number assay (CASY cell counter); format: cell-based, human; conditions: for inhibition of tumor cell growth: dose dependent, maximal effect
# Protocol: (§1) Various functional readout systems were available to determine the tumor suppressive impact of 1-681_ITIH5 treatment in vitro: A) Cell number assay: Numbers of living cells were quantified after four days of culturing using the CASY cell counter and analyzer (Roche Diagnostics, Mannheim, Germany). B) XTT proliferation assay: the cell proliferation KIT (XTT) was used according to the manufacturer's recommendations (Roche). C) Colony formation assay: 1×10^3 cells were seeded into six-well plates. After 14 days of culturing grown colonies were fixed with 3.5% formaldehyde/80% methanol and stained with 0.1% crystal violet. D) Wound healing assay: a confluent monolayer was scratched with a pipette tip. Afterwards cell migration within the wounded area was analyzed by using a light microscope over three days.
# as §1, with “Highly purified peptides were used for functional in vitro validation. Various” for “Various”, “ITIH5 protein subfragments” for “1-681_ITIH5 treatment”, “B)” for “B) XTT proliferation assay: the cell proliferation KIT (XTT) was used according to the manufacturer's recommendations (Roche). C)”, “violet. C) In order to ensure specificity of observed effects of the ITIH5 subfragments a LDH Cytotoxicity Detection Kit (Roche) was performed according to the manufacturer's recommendations.” for “violet.”
# A549 lung cancer cells [3] = test: short-term cell number assay (CASY cell counter); format: cell-based, human; conditions: dose dependent, maximal effect
# Protocol: as §1, with “Highly purified peptides were used for functional in vitro validation. Various” for “Various”, “ITIH5 protein subfragments” for “1-681_ITIH5 treatment”, “B)” for “B) XTT proliferation assay: the cell proliferation KIT (XTT) was used according to the manufacturer's recommendations (Roche). C)”, “violet. C) In order to ensure specificity of observed effects of the ITIH5 subfragments a LDH Cytotoxicity Detection Kit (Roche) was performed according to the manufacturer's recommendations.” for “violet.”
# [4] = test system: MDA-MB231 breast cancer cells; test: LDH Cytotoxicity Detection assay; format: cell-based, human; conditions: after 72 h vs controls
# Protocol: (§2) In order to ensure specificity of observed effects of 1-681_ITIH5, a LDH Cytotoxicity Detection assay (Roche) was performed according to the manufacturer's recommendations. Furthermore MDA-MB231 single cell clones were generated which stably express ITIH5 protein under a strong CMV promoter. These endogenous ITIH5-positive clones are optimal control cells, i.e. those ITIH5-positive cells should not show further sensitivity against 1-681_ITIH5 in growth inhibitory experiments.
# Highly purified peptides were used for functional in vitro validation. Various functional readout systems were available to determine the tumor suppressive impact of ITIH5 protein subfragments in vitro: A) Cell number assay: Numbers of living cells were quantified after four days of culturing using the CASY cell counter and analyzer (Roche Diagnostics, Mannheim, Germany). B) Colony formation assay: 1×10^3 cells were seeded into six-well plates. After 14 days of culturing grown colonies were fixed with 3.5% formaldehyde/80% methanol and stained with 0.1% crystal violet. C) In order to ensure specificity of observed effects of the ITIH5 subfragments a LDH Cytotoxicity Detection Kit (Roche) was performed according to the manufacturer's recommendations. […] Afterwards cell migration within the wounded area was analyzed by using a light microscope over three days.
# [5] = test system: MDA-MB231 breast cancer cells; test: scratch wound healing assay (cell migration); format: cell-based, human; conditions: over 3 days
# Protocol: as §1
# Highly purified peptides were used for functional in vitro validation. Various functional readout systems were available to determine the tumor suppressive impact of ITIH5 protein subfragments in vitro: A) Cell number assay: Numbers of living cells were quantified after four days of culturing using the CASY cell counter and analyzer (Roche Diagnostics, Mannheim, Germany). B) Colony formation assay: 1×10^3 cells were seeded into six-well plates. […] Afterwards cell migration within the wounded area was analyzed by using a light microscope over three days.
# A549 lung cancer cells [6] = test: LDH Cytotoxicity Detection assay; format: cell-based, human; conditions: after 72 h vs controls
# Protocol: Highly purified peptides were used for functional in vitro validation. Various functional readout systems were available to determine the tumor suppressive impact of ITIH5 protein subfragments in vitro: A) Cell number assay: Numbers of living cells were quantified after four days of culturing using the CASY cell counter and analyzer (Roche Diagnostics, Mannheim, Germany). B) Colony formation assay: 1×10^3 cells were seeded into six-well plates. After 14 days of culturing grown colonies were fixed with 3.5% formaldehyde/80% methanol and stained with 0.1% crystal violet. C) In order to ensure specificity of observed effects of the ITIH5 subfragments a LDH Cytotoxicity Detection Kit (Roche) was performed according to the manufacturer's recommendations. D) Wound healing assay: a confluent monolayer was scratched with a pipette tip. Afterwards cell migration within the wounded area was analyzed by using a light microscope over three days.
# [7] = test system: SK-MES1 lung cancer cells; test: XTT proliferation assay; format: cell-based, human; conditions: dose-dependent
# Protocol: as §1
# [8] = test system: MDA-MB231 endogenously ITIH5 positive cells; test: colony formation assay in ITIH5-expressing single cell clones; format: cell-based, human; conditions: MDA-MB231 clones stably expressing ITIH5
# Protocol: as §1, §2
# [9] = test system: BT20 breast cancer cell line; test: colony formation assay; format: cell-based, human
# Protocol: as §1
# [10] = test system: T47D breast cancer cell line; test: colony formation assay; format: cell-based, human
# Protocol: as §1
# [11] = test system: MDA-MB231 breast cancer cells; test: long-term colony formation assay; format: cell-based, human; conditions: p<0.001
# Protocol: as §1
# [12] = stability in supernatant of treated cancer cells (western blot); format: in vitro ADME; conditions: 1 μg/ml added to supernatant of MDA-MB231 cells; western blotting
# Protocol: FIG. 2 is a diagram showing the performance of the recombinant 1-681_ITIH5 in vitro. A) Persisting stability of 1-681_ITIH5 over 48 h in vitro. 1 μg/ml of 1-681_ITIH5 was added to the supernatant of MDA-MB231 breast cancer cells. To the given time points 1 ml of the supernatant was harvested and non-degraded 1-681_ITIH5 was isolated and analyzed by western blotting (as shown). B) LDH cytotoxicity assay.
# Before applying 1-681_ITIH5 in vitro both the stability and the purity were tested by using a western blot analysis.
molecule,measurement,setting,value
#26: chemically synthesized peptide derived from the ITIH5 VIT-domain (SVKSTIISRYAFTTVSCRML; isolated peptide),"cancer cell growth, single peptides",[1],significant impairment of cancer cell growth
#111: chemically synthesized peptide derived from the ITIH5 vWA domain (KLRQTKDALFTILHDLRPQD; isolated peptide),"cancer cell growth, single peptides",[1],significant impairment of cancer cell growth
#98: chemically synthesized peptide derived from the ITIH5 vWA domain (GDIQVLNGYFVHYFAPKDLP; isolated peptide),"cancer cell growth, single peptides",[1],significant impairment of cancer cell growth
#108: chemically synthesized peptide derived from the ITIH5 vWA domain (DSSASMVGTKLRQTKDALFT; isolated peptide),"cancer cell growth, single peptides",[1],significant impairment of cancer cell growth
#102: chemically synthesized peptide derived from the ITIH5 vWA domain (YFAPKDLPPLPKNVVFVLDS; isolated peptide),"cancer cell growth, single peptides",[1],significant impairment of cancer cell growth
#32: chemically synthesized peptide derived from the ITIH5 VIT-domain (MLNRASEDQDIEFQMQIPAA; isolated peptide),"cancer cell growth, single peptides",[1],significant impairment of cancer cell growth
B1,inhibition of tumor cell growth,[2],up to 30%
B2,inhibition of tumor cell growth,A549 lung cancer cells [3],up to 40%
same,unspecific cytotoxicity (LDH),[4],no unspecific cytotoxicity
same,tumor cell migration / cell motility,[5],clearly suppresses cell motility
same,unspecific cytotoxicity (LDH),A549 lung cancer cells [6],no unspecific cytotoxicity
same,inhibition of tumor cell growth,[2],up to 40%
B3,unspecific cytotoxicity (LDH),[4],no unspecific cytotoxicity
same,cell growth inhibition (XTT),[7],strongly mediates cell growth inhibition
same,growth inhibition in ITIH5-positive cells,[8],not able to mediate growth inhibition
same,tumor cell migration / cell motility,[5],impairs furthermore tumor cell migration
same,colony growth,[9],significantly reduced colony growth
same,colony growth,[10],significantly reduced colony growth
same,colony growth after 14 days in culture (densitometrical evaluation),[11],significantly impairs colony growth
same,Growth inhibition,"[2]; 100 ng/ml medium, repeated experiments",up to 20%
same,Growth inhibition,"[2]; 1 μg/ml medium, highly significant",up to 50%
same,stability in the supernatant of treated cancer cells,[12],≥ 48 h
